Reference: PMC11697113, “The Hsc70 system maintains the synaptic SNARE protein SNAP-25 in an assembly-competent state and delays its aggregation [drawing 1]” (The Journal of Biological Chemistry, 2024)

Key:
Hsc70 [1] = target: T1, Hsc70 (Homo sapiens, UniProt P11142); assay: Competition binding vs FITC-p5 by fluorescence anisotropy; settings: Hsc70 5 μM, FITC-p5 50 nM, competitor 0 to 200 μM, phosphate buffer pH 7.4, overnight 4 °C, fluorescence anisotropy 485/516 nm, three independent experiments
T1 construct: 6X His-tag (TEV-cleavable) (cleaved yes); made in house; host or cells: E. coli Rosetta (DE3)
T1 sequence (P11142 whole entry): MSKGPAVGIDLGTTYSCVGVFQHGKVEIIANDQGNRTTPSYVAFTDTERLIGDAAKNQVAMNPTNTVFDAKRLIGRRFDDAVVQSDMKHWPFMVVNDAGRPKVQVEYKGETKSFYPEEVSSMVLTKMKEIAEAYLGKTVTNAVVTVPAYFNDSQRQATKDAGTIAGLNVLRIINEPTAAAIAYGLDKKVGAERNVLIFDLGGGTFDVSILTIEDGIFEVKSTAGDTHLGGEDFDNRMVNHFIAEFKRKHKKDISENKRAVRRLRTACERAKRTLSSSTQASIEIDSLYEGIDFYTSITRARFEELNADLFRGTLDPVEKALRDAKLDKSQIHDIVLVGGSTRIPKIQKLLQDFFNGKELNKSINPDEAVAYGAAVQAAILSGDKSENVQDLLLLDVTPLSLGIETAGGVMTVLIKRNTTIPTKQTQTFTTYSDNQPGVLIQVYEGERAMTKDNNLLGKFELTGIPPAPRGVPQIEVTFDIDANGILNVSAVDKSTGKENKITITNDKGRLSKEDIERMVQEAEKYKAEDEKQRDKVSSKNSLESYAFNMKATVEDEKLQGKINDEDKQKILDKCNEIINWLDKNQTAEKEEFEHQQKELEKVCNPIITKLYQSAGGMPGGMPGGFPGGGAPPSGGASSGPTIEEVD
Method: Figure 3 Hsc70 forms complexes with SNAP-25.A, native PAGE of SNAP-25 (10 μM) in the presence and absence of Hsc70 (2 μM). The difference in signal intensity of His-SNAP25 probed with antibody is likely due to altered epitope exposure upon formation of the SNAP-25-Hsc70 complex. B, binding of SNAP-25 (black), SNAP-25 SNN (SNNFR, orange), and SNC (SNCFR, green)) fragments to Hsc70 by competition followed by fluorescence anisotropy. Increasing concentrations of the competitors were added to a complex of Hsc70 (5 μM) and FITC-p5 peptide (50 nM). Error bars represent SDs from three independent experiments.
To pin down the regions in SNAP-25 where Hsc70 binds we expressed the individual SNN and SNC fragments of SNAP-25 and tested their ability to compete for Hsc70 binding to an FITC-labeled p5 peptide (ALLLSAPRR).
Figure 5 SNN and SNC peptides interact with the canonical substrate-binding site of Hsc70.A, ATPase activity of Hsc70 (2 μM) in the absence (gray) and presence of 200 μM SNNP (orange) and SNCP (green) peptides. Error bars represent the SDs from three independent experiments. B, binding of SNAP-25 (black), SNNP (orange), LoopP (blue), and SNCP (green) peptides to Hsc70 followed by competition for FITC-p5 peptide using fluorescence anisotropy. Increasing concentrations of the competitors were added to a complex of Hsc70 (5 μM) and FITC-p5 peptide (50 nM). Error bars represent SDs from three independent experiments. C, structure of the canonical substrate-binding site of human HspA1 (PDB 4po2) illustrating the location of Hsc70 residues Ile 403 and Ile 440 in red and green spheres, respectively (N.B., Hsc70 and HspA1 share […] sequence identity). The SBD is shown in gray, bound substrate in cyan sticks, and the side chain of the residue occupying the 0th position in the chaperone (“anchor residue”) in orange ball and sticks. For better visualization of the substrate-binding site, residues 512 to 613, 405 to 408, and 431 were removed in this illustration of the structure. D, the Ile region of the ^1H-^13 C HMQC spectra of Ile-^13CH3-labeled Hsc70 (40 μM) in the absence (black) and in the presence of unlabeled SNNP (orange) and SNCP (green) peptides (200 μM).
To further characterize the binding of the SNAP-25 peptides to Hsc70 we used competition assays as above. Peptides SNNP, LOOPP, and SNCP were titrated against the protein-peptide complex of Hsc70 and FITC-p5 and fluorescence anisotropy was monitored to assess how well the SNAP-25 peptides displaced the model peptide.
Direct binding between the p5 peptide (QSRLLLSAPRRAA) and Hsc70 was carried out as described previously ([52]). […] Fluorescence anisotropy was measured in a BioTek plate reader (BioTek) with excitation at 485 nm and emission at 516 nm.
The measured anisotropy values were converted to fraction bound (fb) using the equation: fb=(r−r0)/(rb−r0) where r is the anisotropy value at any point, r0 is the anisotropy value of FITC-p5 in the absence of Hsc70, and rb is the anisotropy value of FITC-p5 when fully bound to Hsc70. […]
For competition assays, the concentrations of Hsc70 and FITC-P5 were kept constant at 5 μM and 50 nM, respectively, and the competitor substrate was titrated from 0 to 200 μM in phosphate buffer. […] Fluorescent anisotropy was measured as described above. […]

SNAP-25 [2] = assay: SNAP-25 aggregation kinetics by optical density; assay type: biochemical; settings: SNAP-25 50 μM, Hsc70 5 μM, 37 °C, shaking 300 rpm, OD 360 nm, 20 mM phosphate buffer pH 7.4, 100 μM MgCl2, 100 mM KCl
Method: (§1) To test our hypothesis that Hsc70 inhibits SNAP-25 aggregation, we monitored the aggregation kinetics of recombinantly expressed SNAP-25 in the absence and presence of Hsc70 by following optical density at 360 nm (Fig. 2). […] This lag time was elongated to ∼65 h in the presence of Hsc70. In neurons, Hsc70 works in collaboration with its co-chaperone CSPα. […] (Fig. S2A). Apg2 is a member of the Hsp110 family, which is known to suppress protein aggregation ([36]). […] (Fig. S2B).
(§2) Figure 2 Hsc70 delays the aggregation of SNAP-25. Aggregation kinetics of SNAP-25 (50 μM) at 37 °C. Optical density of SNAP-25 was recorded at 360 nm in the absence (black) and in the presence of Hsc70 (5 μM, red), and Hsc70+CSPαJ (5 μM each, blue).
(§3) Aggregation of SNAP-25 at 50 μM was followed by measuring the A360 in a 96-well plate using a BioTek plate reader (BioTek), at 37 °C with shaking at 300 rpm, in the absence and presence of Hsc70 and CSPαJ at 5 μM each, and Apg2 at 0.5 μM. The aggregation buffer included 20 mM phosphate buffer pH 7.4, 100 μM MgCl2, and 100 mM KCl, and an ATP-experiment was carried out using regeneration system (5 mM 2-phosphoenolpyruvate, 0.05 mg/ml pyruvate kinase, and 5 mM ATP), as described previously ([51]).
(§4) Figure SI 2. Apg2 enhances the effect of Hsc70 on SNAP-25. (A) Aggregation kinetics of SNAP-25 (50 μM) at 37 °C. OD600 of SNAP-25 was recorded in the absence (black) and in the presence of Hsc70, Hsc70+CSPa-J (blue) and Hsc70+CSPa-J+Apg2 (turquoise). […]
(§5) concentrations are SNAP-25 (50 μM), Hsc70 (5 μM), CSPa-J (5 μM) and Apg2 (0.5 μM).
(§6) (B) Aggregation kinetics of SNAP-25 (50 μM) at 37 °C. OD600 of SNAP-25 was recorded in the absence (black) and in the presence of Apg2 (blue). […]

[3] = SNAP-25 aggregation kinetics by optical density; assay type: biochemical; settings: without SNAP-25, 37 °C
Method: as §1, §2, §3, §4, §5, §6

[4] = tested on: SNARE complex with syntaxin and synaptobrevin; assay: SDS-resistant SNARE complex formation (SDS-PAGE); assay type: biochemical; settings: with Hsc70, mixed with syntaxin and synaptobrevin, 1 M NaCl, 4 °C
Method: We took aliquots of SNAP-25 at different time points of the aggregation reaction (at 0 h, in lag phase and at 64 h in the log or saturation phase, Fig. 2A) and mixed them with the SNARE motifs of syntaxin and synaptobrevin to allow the formation of the SNARE complex.
Figure 6 Hsc70 facilitates incorporation of SNAP-25 into the SNARE complex in vitro. SDS-PAGE of SNAP-25 taken from the aggregation reactions (Fig. 2) at 0 h and 64 h after the initiation, without (left) and with Hsc70 (right), and mixed with syntaxin and synaptobrevin for the time indicated below each SDS-PAGE. SNAP-25 is expressed and purified from E. coli; a minor amount of the bacterial Hsp70 homolog DnaK (∼70 kDa) may copurify with SNAP-25, explaining the presence of higher molecular weight bands, with its proteolysis potentially occurring during ∼64-h SNAP-25 aggregation reactions. For synaptobrevin, we attribute the higher molecular weight bands to incomplete cleavage of GST-tagged synaptobrevin.
The SNARE motifs were mixed in an equimolar ratio in the following order: synaptobrevin-2 (29–93), syntaxin-1A (191–253), and SNAP-25 taken from the aggregation reaction, in the presence of 1 M NaCl. The assembly reaction was incubated at 4 °C overnight while rotating. The SNARE motifs were concentrated using a 30-kDa molecular weight cutoff Amicon centrifugation filters and run on 4 to 20% gradient SDS-PAGE.

SNAP-25 [5] = assay: Far-UV CD; assay type: physicochemical; settings: far-UV CD 200–250 nm, 22 °C (Fig. S1)
Method: SNAP-25 has four native cysteines that are palmitoylated upon interaction with the membrane. […] For all of our studies, the SNAP-25 CS mutant was used unless otherwise mentioned.
The far-UV CD spectra (200–250 nm) were recorded on a Jasco J-1500 Circular Dichroism Spectrophotometer at 22 °C. The SNAP-25 WT, SNAP-25, and mixture of SNAP-25 and Hsc70 were taken in a 1 mm path length quartz cuvette. Figures show the average of ten scans where the buffer baselines were subtracted. Data were plotted using software using the Origin (Pro) program (OriginLab Corp).

Hsc70 [6] = target: T1, Hsc70; assay: ATPase activity of Hsc70 (malachite green); assay type: biochemical; settings: no peptide; "usually about"
Source text: Hsp70s consist of an nucleotide-binding domain (NBD) and a substrate-binding domain (SBD). Hsc70 works using an allosteric mechanism whereby substrate binding at the SBD stimulates the ATP hydrolysis rate at the nucleotide-binding domain. The basal ATPase rate of Hsp70 is low, usually about 0.05 ± 0.009 mol Pi/mol protein, and increases when it is stimulated by binding of a peptide to the canonical site in the SBD. We measured the ability of SNAP-25 peptides SNNP and SNCP to stimulate the ATPase rate of Hsc70 (Fig. 5A). SNNP and SNCP binding cause a 1.5-fold increase of the Hsc70 ATPase rate over basal (observed rates upon addition of SNNP and SNCP were 0.089 ± 0.008 and 0.080 ± 0.005, respectively). In order to confirm that peptides are indeed binding at the canonical binding site of Hsc70, we used the V438F mutant that blocks the binding site ([37]). […] The addition of CSPαJ stimulates the ATPase activity of Hsc70 ∼4-fold with and without peptides.
Figure 5 SNN and SNC peptides interact with the canonical substrate-binding site of Hsc70.A, ATPase activity of Hsc70 (2 μM) in the absence (gray) and presence of 200 μM SNNP (orange) and SNCP (green) peptides. Error bars represent the SDs from three independent experiments. B, binding of SNAP-25 (black), SNNP (orange), LoopP (blue), and SNCP (green) peptides to Hsc70 followed by competition for FITC-p5 peptide using fluorescence anisotropy. Increasing concentrations of the competitors were added to a complex of Hsc70 (5 μM) and FITC-p5 peptide (50 nM). Error bars represent SDs from three independent experiments. […]
We performed ATPase assays to observe the activity of Hsc70 in the presence of SNAP25 peptides. […] Absorbance readings were taken at 620 nm using a BioTek plate reader. […]
(C) ATPase activity of Hsc70 (at 2 μM) in the absence (grey) and presence of 200 μM SNNP (orange) and L(Loop)-SNCP (green) peptides, and in the absence and presence of CSPa-J and CSPa-J/Apg2. The statistical significance was calculated using one-way ANOVA test with Sidak’s multiple comparison and the Hsc70 ATPase activity […]

## SNC: SNAP-25 SNC fragment, SNCFR141–201
Hsc70 [1]
  competition with p5 peptide for binding to Hsc70: competed with p5 peptide for binding to Hsc70

## heat shock cognate 70 [Hsc70]
SNAP-25 [2]
  lag time of SNAP-25 aggregation in the presence of Hsc70: ~65 h
[3]; OD 360 nm (Fig. 2)
  aggregation of the chaperone alone: no aggregation
[3]; OD600 (Fig. S2A), Hsc70 5 μM, CSPa-J 5 μM, Apg2 0.5 μM
  aggregation of the chaperone alone: exhibit no aggregation
[4]
  SNARE complex formation by SNAP-25 taken at 0 h and 64 h of aggregation in the presence of Hsc70: can productively form a SNARE complex
SNAP-25 [5]
  conformational change upon Hsc70-SNAP-25 interaction: no significant conformational change

## SNN: SNAP-25 SNN fragment, SNNFR 11–82
Hsc70 [1]
  competition with p5 peptide for binding to Hsc70: competed with p5 peptide for binding to Hsc70

## 70-kDa heat shock protein [Hsp70]
Hsc70 [6]
  basal ATPase rate: about 0.05 ± 0.009 mol Pi/mol protein
